According to patent US20240059757A1 (VIR BIOTECHNOLOGY, published 2024):
Values joined by “and” are separate entries in the source; they are usually repeats but may differ in a detail not shown here. Identical values can stand only once. Like-named read-outs stand apart in the source and are kept apart here.

B1: 407_10_1_v2 (antibody, V domains shown)
VH: QVQLVQSGAEVKKPGSSVKVSCKASGGIFNTYTISWVRQAPGQGLEWMGRIILMSGMANYAQKIQGRVTITADKSTSTAYMELTSLRSDDTAVYYCARGFNGNYYGWGDDDAFDIWGQGTLVTVYS
VL: QTVLTQPPSVSGAPGQRVTISCTGSNSNIGAGYDVHWYQQLPGTAPKLLICGNSNRPSGVPDRFSGSKSGTSASLAITGLQAEDEADYYCQSYDSSLSGPNWVFGGGTKLTVL
B2: S2X259 variant antibody, VH SEQ ID NO 408 / VL SEQ ID NO 442 (antibody, V domains shown)
VH: QVQLVQSGAEVKKPGSSVKVSCKASGGIFNTYTISWVRQAPGQGLEWMGRIILMSGMANYAQKIQGRVTITADKSTSTAYMELTSLRSDDTAVYYCARGFNGNYYGWGDDDAFDISGQGTLVTVYS
VL: QTVLTQPPSVSGAPGQRVTISCTGSNSNIGAGYDVHWYQQLPGTAPKLLISGNSNRPSGVPDRFSGSKSGTSASLAITGLQAEDEADYYCQSYDSSLSGPNWVFGGGTKLTVL
B3: S2X259 variant antibody, VH SEQ ID NO 408 / VL SEQ ID NO 443 (antibody, V domains shown)
VH: QVQLVQSGAEVKKPGSSVKVSCKASGGIFNTYTISWVRQAPGQGLEWMGRIILMSGMANYAQKIQGRVTITADKSTSTAYMELTSLRSDDTAVYYCARGFNGNYYGWGDDDAFDISGQGTLVTVYS
VL: QTVLTQPPSVSGAPGQRVTISCTGSNSNIGAGYDVHWYQQLPGTAPKLLIAGNSNRPSGVPDRFSGSKSGTSASLAITGLQAEDEADYYCQSYDSSLSGPNWVFGGGTKLTVL
B4: S2X259 variant antibody, VH SEQ ID NO 408 / VL SEQ ID NO 444 (antibody, V domains shown)
VH: QVQLVQSGAEVKKPGSSVKVSCKASGGIFNTYTISWVRQAPGQGLEWMGRIILMSGMANYAQKIQGRVTITADKSTSTAYMELTSLRSDDTAVYYCARGFNGNYYGWGDDDAFDISGQGTLVTVYS
VL: QTVLTQPPSVSGAPGQRVTISCTGSNSNIGAGYDVHWYQQLPGTAPKLLIYGNSNRPSGVPDRFSGSKSGTSASLAITGLQAEDEADYYCQSYDSSLSGPNWVFGGGTKLTVL
B5: S2X259 variant antibody, VH SEQ ID NO 408 / VL SEQ ID NO 445 (antibody, V domains shown)
VH: QVQLVQSGAEVKKPGSSVKVSCKASGGIFNTYTISWVRQAPGQGLEWMGRIILMSGMANYAQKIQGRVTITADKSTSTAYMELTSLRSDDTAVYYCARGFNGNYYGWGDDDAFDISGQGTLVTVYS
VL: QTVLTQPPSVSGAPGQRVTISCTGSNSNIGAGYDVHWYQQLPGTAPKLLIVGNSNRPSGVPDRFSGSKSGTSASLAITGLQAEDEADYYCQSYDSSLSGPNWVFGGGTKLTVL
B6: S2X259 variant antibody, VH SEQ ID NO 446 / VL SEQ ID NO 412 (antibody, V domains shown)
VH: QVQLVQSGAEVKKPGSSVKVSCKASGGIFNTYTISWVRQAPGQGLEWMGRIILISGIANYAQKIQGRVTITADKSTSTAYMELTSLRSDDTAVYYCARGFNGNYYGWGDDDAFDISGQGTLVTVYS
VL: QTVLTQPPSVSGAPGQRVTISCTGSNSNIGAGYDVHWYQQLPGTAPKLLICGNSNRPSGVPDRFSGSKSGTSASLAITGLQAEDEADYYCQSYDSSLSGPNWVFGGGTKLTVL
B7: S2X259 variant antibody, VH SEQ ID NO 448 / VL SEQ ID NO 412 (antibody, V domains shown)
VH: QVQLVQSGAEVKKPGSSVKVSCKASGGIFSTYTISWVRQAPGQGLEWMGRIILMSGMANYAQKIQGRVTITADKSTSTAYMELTSLRSDDTAVYYCARGFNGNYYGWGDDDAFDISGQGTLVTVYS
VL: QTVLTQPPSVSGAPGQRVTISCTGSNSNIGAGYDVHWYQQLPGTAPKLLICGNSNRPSGVPDRFSGSKSGTSASLAITGLQAEDEADYYCQSYDSSLSGPNWVFGGGTKLTVL
B8: S2X259 variant antibody, VH SEQ ID NO 458 / VL SEQ ID NO 445 (antibody, V domains shown)
VH: QVQLVQSGAEVKKPGSSVKVSCKASGGIFNTYTISWVRQAPGQGLEWMGRIILMSGMANYAQKIQGRVTITADKSTSTAYMELTSLRSDDTAVYYCARGFNGNYYGWGDDDAFDIWGQGTLVTVSS
VL: QTVLTQPPSVSGAPGQRVTISCTGSNSNIGAGYDVHWYQQLPGTAPKLLIVGNSNRPSGVPDRFSGSKSGTSASLAITGLQAEDEADYYCQSYDSSLSGPNWVFGGGTKLTVL
B9: S2X259 variant antibody, VH SEQ ID NO 459 / VL SEQ ID NO 445 (antibody, V domains shown)
VH: QVQLVQSGAEVKKPGSSVKVSCKASGGIFNTYTISWVRQAPGQGLEWMGRIILMSGKANYAQKIQGRVTITADKSTSTAYMELTSLRSDDTAVYYCARGFNGNYYGWGDDDAFDIWGQGTLVTVSS
VL: QTVLTQPPSVSGAPGQRVTISCTGSNSNIGAGYDVHWYQQLPGTAPKLLIVGNSNRPSGVPDRFSGSKSGTSASLAITGLQAEDEADYYCQSYDSSLSGPNWVFGGGTKLTVL
B10: S2X259 variant antibody, VH SEQ ID NO 460 / VL SEQ ID NO 445 (antibody, V domains shown)
VH: QVQLVQSGAEVKKPGSSVKVSCKASGGIFNTYTISWVRQAPGQGLEWMGRIILISGIANYAQKIQGRVTITADKSTSTAYMELTSLRSDDTAVYYCARGFNGNYYGWGDDDAFDIWGQGTLVTVSS
VL: QTVLTQPPSVSGAPGQRVTISCTGSNSNIGAGYDVHWYQQLPGTAPKLLIVGNSNRPSGVPDRFSGSKSGTSASLAITGLQAEDEADYYCQSYDSSLSGPNWVFGGGTKLTVL

Columns and labels:
[1] = target: T1, SARS-CoV-2 RBD (residues 331-550 of spike from BetaCoV/Wuhan-Hu-1/2019, accession number MN908947) (SARS-CoV-2 Wuhan-Hu-1, UniProt P0DTC2 331-550)
SARS-CoV-2 Spike protein [2] = target: T2, SARS-CoV-2 Spike protein (SARS-CoV-2 Wuhan-Hu-1, UniProt P0DTC2 14-1273); test: cell-based or functional assay
[3] = target: T1, SARS-CoV-2 RBD (residues 331-550 of …); test: BLI
SARS-CoV-2 Spike protein [4] = target: T2, SARS-CoV-2 Spike protein; test: cell-based or functional assay; remark: listed apart in the source
[5] = target: T1, SARS-CoV-2 RBD (residues 331-550 of …); test: BLI; remark: listed apart in the source
[6] = target: SARS-CoV-2 mutant RBD N439K (SARS-CoV-2, UniProt P0DTC2 328-531); test: ELISA
[7] = target: T1, SARS-CoV-2 RBD (residues 331-550 of …); test: ELISA

Row | Binder | EC50 (read off the curve) [1] [µg/mL] | neutralization IC50 (SARS-CoV-2 Spike protein [2]) [µg/mL] | Kd [3] [pM] | neutralization IC50 (SARS-CoV-2 Spike protein [4]) [µg/mL] | Kd [5] [pM] | koff [5] [s⁻¹] | kon [5] [M⁻¹ s⁻¹] | IC50 [6] | IC50 [7]
1 | B1 | ~5 |  |  |  |  |  |  |  | 
2 | B2 |  | 0.19 | 60.5 |  |  |  |  |  | 
3 | B3 |  | 0.0975 | 82.8 | < 0.1 |  |  |  |  | 
4 | B4 |  | 0.167 | 64.2 |  |  |  |  |  | 
5 | B5 |  | 0.19 | 76.4 | < 0.1 | 31.4 | 2.08e-05 | 661000 |  | 
6 | B6 |  | 0.321 | 572 |  |  |  |  |  | 
7 | B7 |  | 0.0134 | 584 |  |  |  |  |  | 
8 | B8 |  |  |  |  | 83.6 | 5.03e-05 | 601000 | ≥ 0.05 µg/mL and ≤ 0.1 µg/mL | ≥ 0.05 µg/mL and ≤ 0.1 µg/mL
9 | B9 |  |  |  |  | 108 | 6.46e-05 | 601000 | ≥ 0.05 µg/mL and ≤ 0.1 µg/mL | ≥ 0.05 µg/mL and ≤ 0.1 µg/mL
10 | B10 |  |  |  |  | 298 | 0.000177 | 595000 |  | ≥ 0.05 µg/mL and ≤ 0.1 µg/mL
